Common to all, as to assay: IEDB peptide-MHC binding, purified MHC/competitive/radioactivity; filed as Kd, often an IC50 or EC50 that approximates it; ≥ and ≤ were set here for values at or beyond the usual limits of such assays
Conditions in all cases: source organism: Influenza A virus

For assay [1], the target named is HLA-A*30:02.
The target of assay [2] is HLA-A*29:02.
Assay [3] deals with HLA-A*01:01.
Assay [4] addresses HLA-B*40:02.
Assay [5] addresses HLA-B*18:01.
The target of assay [6] is HLA-B*44:02.
Assay [7] has as its target HLA-B*44:03.
Assay [8] deals with HLA-B*45:01.
The target in assay [9] is HLA-B*40:01.
The target in assay [10] is HLA-A*02:03.
Assay [11] concerns the target HLA-A*02:06.
In assay [12] the target is HLA-A*02:02.
Assay [13] has as its target HLA-A*68:02.
Assay [14] concerns the target HLA-A*02:01.
Assay [15] deals with HLA-A*31:01.
Assay [16] concerns the target HLA-A*68:01.
For assay [17], the target named is HLA-A*03:01.
For assay [18], the target named is HLA-A*33:01.
Assay [19] deals with HLA-A*11:01.
The target of assay [20] is HLA-B*53:01.
The target of assay [21] is HLA-B*35:01.
The target of assay [22] is HLA-B*51:01.
Assay [23] addresses HLA-B*54:01.
Assay [24] deals with HLA-A*23:01.
Assay [25] deals with HLA-A*24:02.

pKd: −log10 of the molar value.

Regarding YSHGTGTGY, the pKd (in general, the negative decadic logarithm of the Kd, by convention in mol/L) is 6.88 in assay [1], 6.31 in [2] and 6.70 in assay [3].

As for QEIRTFSFQL, the pKd was 7.17 in assay [4]; 6.29 in assay [5]; 6.99 in assay [6]; 6.37 in [7]; 6.42 in [8]; 6.87 in assay [9].

As for FQVDCFLWHV, the pKd in assay [10] is 8.52; in [11], no less than 9.00; in assay [12], 8.40; in assay [13], 6.66; in assay [14], 8.40.

Regarding CLPACVYGL, the pKd is 6.84 in assay [10]; 7.02 in assay [11]; 8.40 in assay [12]; 5.42 in [13]; 7.10 in assay [14].

Regarding RLFFKCIYRR, the pKd in assay [15] was 8.30; in assay [16], 7.06; in [17] it was 6.87; in [18], 6.62; in [19], 6.53.

Consider LPRRSGAAGA, for which the pKd in assay [20] is no more than 5.00; in assay [21], no more than 5.00; in [22], no more than 5.00; in [23], 7.33.

VLRGFLILGK: the pKd was 7.07 in assay [15]; 5.94 in assay [16]; 8.00 in [17]; no more than 5.00 in assay [18]; 6.34 in assay [19].

In the case of KSCLPACVY, the pKd in [1] was 7.37; in assay [2] it was no more than 5.00.

Consider GERQNATEI, for which the pKd was 7.28 in assay [4]; no more than 5.00 in assay [5]; no more than 5.00 in assay [6]; no more than 5.00 in [7]; 6.52 in [8]; 6.70 in [9].

As to SEQAAEAMEV, the pKd in assay [4] is 7.07; in assay [5] it was 5.72; in assay [6], 5.58; in assay [7], 5.12; in [8], 7.46; in assay [9], 5.57.

Consider SVQRNLPFER, for which the pKd in assay [15] is 6.98; in [16], 7.72; in [17], no more than 5.00; in assay [18] it was 6.49; in assay [19] it was 6.39.

On to GTFEFTSFFY, for which the pKd in [15] was 6.62; in assay [16], 7.00; in assay [17] it was 7.80; in [18] it was 5.27; in assay [19] it was no less than 9.00.

Consider SVQPTFSVQR, for which the pKd in assay [15] was 7.68; in [16], 7.08; in assay [17], no more than 5.00; in assay [18] it was 6.74; in assay [19], 7.43.

Consider FYIQMCTEL, for which the pKd in [24] is 8.10; in assay [1] it was no more than 5.00; in assay [2] it was 5.81; in [25] it was 7.62.

As to SFSFGGFTFK, the pKd in [18] is 7.07.

FYRYGFVANF: the pKd was 7.89 in assay [24], no more than 5.00 in [1], 6.09 in [2] and 7.77 in assay [25].

For TEVETYVLSI, the pKd in [4] was 6.71; in assay [5], 6.87; in assay [6], 5.16; in assay [7], 6.61; in assay [8], 6.30; in [9], 6.88.

Regarding KLVGINMSKK, the pKd was 6.29 in assay [15]; 5.79 in [16]; 7.85 in assay [17]; no more than 5.00 in assay [18]; 6.50 in assay [19].

With KFLPDLYDYK, the pKd was 5.62 in [15]; 6.29 in [16]; 6.59 in assay [17]; no more than 5.00 in assay [18]; 7.66 in assay [19].

For the sequence ASCMGLIYNR, the pKd was 8.15 in assay [15]; 6.41 in assay [16]; 6.09 in assay [17]; 6.35 in [18]; 7.49 in [19].

As to FQGRGVFEL, the pKd in [10] was 6.51; in [11], 8.15; in [12], 8.15; in assay [13] it was no more than 5.00; in [14], 6.84.

As for NMLSTVLGV, the pKd in assay [10] was 7.96; in [11], 8.52; in assay [12] it was 8.30; in assay [13], 5.97.

The record behind these values is the Immune Epitope Database (IEDB).
